Patent publication US20140296492A1

Target: HLA-A2-… complex on cells (human)
Experiment: cell-based or functional assay

Substance: anti-HLA-A2 antibody BB7.2
- blocking of WT1 Clone 45 CAR-mediated cytotoxicity against …-pulsed DIMT BLCL (51Cr release), antibody at 5 µg/ml: 45%
